Source: publication PMC7113306, “Molecular basis of ALK1-mediated signalling by BMP9/BMP10 and their prodomain-bound forms” (Nature Communications, 2020)

T1: soluble endoglin (sENG) (human, UniProt P17813 26-586)
T1 construct: signal peptide in the construct; endoglin (ENG), human, residue 1-586 of the cDNA; source: HEK EBNA, transfected (pCEP4), purified from conditioned medium (HiTrap Excel, HiTrap Q, Superdex 200)
T1 sequence (looked up): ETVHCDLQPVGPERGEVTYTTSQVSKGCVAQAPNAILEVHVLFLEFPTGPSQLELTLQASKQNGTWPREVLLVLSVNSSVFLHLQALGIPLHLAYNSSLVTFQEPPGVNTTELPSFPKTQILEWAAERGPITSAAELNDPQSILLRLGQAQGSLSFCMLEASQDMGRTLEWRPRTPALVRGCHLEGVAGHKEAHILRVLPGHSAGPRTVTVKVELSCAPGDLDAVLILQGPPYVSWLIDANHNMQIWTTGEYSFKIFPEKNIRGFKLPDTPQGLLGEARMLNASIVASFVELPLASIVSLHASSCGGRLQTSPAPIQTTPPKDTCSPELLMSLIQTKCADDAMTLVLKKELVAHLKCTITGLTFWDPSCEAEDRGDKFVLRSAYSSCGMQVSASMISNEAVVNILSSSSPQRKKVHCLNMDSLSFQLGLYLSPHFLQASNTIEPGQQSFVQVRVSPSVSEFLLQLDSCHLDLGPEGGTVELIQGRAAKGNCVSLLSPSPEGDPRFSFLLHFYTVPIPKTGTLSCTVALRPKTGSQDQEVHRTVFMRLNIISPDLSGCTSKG


Assays:
[1] = biological target: the molecule itself; assay: crystal structure; pro-BMP9 mixed with ALK1 ECD at 1:1.5, 3.3 Å, space group P6_(1)
[2] = biological target: T1, soluble endoglin (sENG); assay: SEC; analytical gel filtration, Superdex 200 10/300, 20 mM Tris.HCl, 150 mM NaCl, pH 7.4; 100 μg protein with 2-fold molar excess of ALK1 ECD; peaks checked by SDS-PAGE and anti-prodomain blot; conditions: both partners purified
[3] = biological target: T2, ALK1 extracellular domain (ALK1 ECD) (human, UniProt P37023 22-118); assay: crystal structure; BMP10 GF-domain with ALK1 ECD, 2.3 Å and 2.8 Å, space group P6_(5)22; conditions: both partners purified
T2 construct: activin receptor-like kinase 1 (ALK1), human, cDNA NM_000020, amino acids 22-118; Released from DsbA-(His)6 by TEV protease; also called ALK1 monomer; source: E. coli Rosetta DE3, periplasm, purified (Ni-NTA, TEV cleavage, Superdex 75); not shown: DsbA, N-terminal, cleaved; His6, N-terminal, cleaved

[4] = biological target: the molecule itself; assay: as above

T2 sequence (P37023 22-118): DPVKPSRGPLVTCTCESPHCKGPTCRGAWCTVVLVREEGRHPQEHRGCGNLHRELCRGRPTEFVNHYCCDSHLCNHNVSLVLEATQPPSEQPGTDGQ

Row | binding result [2] | stoichiometry N [3] | Binder | stoichiometry N [1] | stoichiometry N [4]
1 | binds |  | BMP9 GF-domain from pro-BMP9 (ligand, human, UniProt Q9UK05 320-429, looked up, BMP9 GF-domain, human, the processed C-terminal product of full-length proBMP9; also called BMP9 dimer; source: HEK EBNA, as part of purified pro-BMP9) SAGAGSHCQKTSLRVNFEDIGWDSWIIAPKEYEAYECKGGCFFPLADDVTPTKHAIVQTLVHLKFPTKVGKACCVPTKLSPISVLYKDDMGVPTLKYHYEGMSVAECGCR | 2 | 
2 |  | 1 ALK1 ECD per BMP10 monomer (2:2) | BMP10 GF-domain from pro-BMP10 (ligand, human, UniProt O95393 317-424, looked up, BMP10 GF-domain, human, the processed C-terminal product of full length proBMP10; also called BMP10 GF-domain disulphide-linked dimer; source: HEK EBNA, as part of purified pro-BMP10) NAKGNYCKRTPLYIDFKEIGWDSWIIAPPGYEAYECRGVCNYPLAEHLTPTKHAIIQALVHLKNSQKASKACCVPTKLEPISILYLDKGVVTYKFKYEGMAVSECGCR |  | 2
